Laboratory results taken from patent US20250255902A1 (published 2025).

What was measured:
Assay in all cases: BLI
TEA1-E8 = molecular target: TEA1-E8
Gly1-2-D4 = molecular target: Gly1-2-D4
Gly2-1-F2 = molecular target: Gly2-1-F2
Gly3-2-C1 = molecular target: Gly3-2-C1

B1: MSLN (other)
chain: EVEKTACPSGKKAREIDESLIFYKKWELEACVDAALLATQMDRVNAIPFTYEQLDVLKHKLDELYPQGYPESVIQHLGYLFLKMSPEDIRKWNVTSLETLKALLEVNKGHEMSPQVATLIDRFVKGRGQLDKDTLDTLTAFYPGYLCSLSPEELSSVPPSSIWAVRPQDLDTCDPRQLDVLYPKARLAFQNMNGSEYFVKIQSFLGGAPTEDLKALSQQNVSMDLATFMKLRTDAVLPLTVAEVQKLLGPHVEGLKAEERHRPVRDWILRQRQDDLDTLGLGLQG
B1 gave a Kd (TEA1-E8) of 0.166 nM, a Kd (Gly1-2-D4) of 4.46 nM and a Kd (Gly2-1-F2) of under 0.001 nM. The Kd (Gly3-2-C1) was 4.88 nM.
